Laboratory results from publication PMC3230775 (Nature structural & molecular biology, 2011).

T1: BCAR3 C-terminal domain (residues 502-825) (human, UniProt O75815 502-825)
T1 sequence: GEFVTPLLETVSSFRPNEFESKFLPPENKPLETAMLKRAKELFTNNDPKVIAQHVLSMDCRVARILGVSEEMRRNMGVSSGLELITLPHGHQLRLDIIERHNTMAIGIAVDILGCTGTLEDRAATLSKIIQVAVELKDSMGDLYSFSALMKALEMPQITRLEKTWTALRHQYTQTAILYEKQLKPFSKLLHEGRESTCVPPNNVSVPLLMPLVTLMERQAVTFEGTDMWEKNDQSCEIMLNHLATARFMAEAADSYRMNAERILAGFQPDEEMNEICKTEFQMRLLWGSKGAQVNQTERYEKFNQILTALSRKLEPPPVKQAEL


Assays:
[1] = target: p130Cas C-terminal domain (residues 645-870) (human) (UniProt P56945); assay: crystal structure
[2] = target: T1, BCAR3 C-terminal domain (residues …); assay: ITC

Chain of NSP3 C-terminal domain (residues 382-703) (domain or fragment) (Q8N5H7 382-703): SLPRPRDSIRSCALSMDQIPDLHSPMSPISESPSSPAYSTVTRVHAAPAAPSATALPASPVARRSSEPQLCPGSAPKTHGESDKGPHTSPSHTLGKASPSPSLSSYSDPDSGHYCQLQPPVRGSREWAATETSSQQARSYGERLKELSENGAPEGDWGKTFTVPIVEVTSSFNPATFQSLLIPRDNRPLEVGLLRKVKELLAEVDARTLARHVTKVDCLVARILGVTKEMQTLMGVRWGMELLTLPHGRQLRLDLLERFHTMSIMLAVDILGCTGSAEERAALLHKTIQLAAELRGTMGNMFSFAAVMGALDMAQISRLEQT

stoichiometry N [1] | Kd [2] [nM] | Molecule
1 | – | NSP3 C-terminal domain (residues 382-703) (domain or fragment)
– | 30 | p130Cas C-terminal domain (residues 645-870) (domain or fragment) SQDSPDGQYENSEGGWMEDYDYVHLQGKEEFEKTQKELLEKGSITRQGKSQLELQQLKQFERLEQEVSRPIDHDLANWTPAQPLAPGRTGGLGPSDRQLLLFYLEQCEANLTTLTNAVDAFFTAVATNQPPKIFVAHSKFVILSAHKLVFIGDTLSRQAKAADVRSQVTHYSNLLCDLLRGIVATTKAAALQYPSPSAAQDMVERVKELGHSTQQFRRVLGQLAAA
